{"source": "paper PMC4328881", "about": "(Cytokine, 2015)", "binders": {"B1": {"name": "22 kDa (196 amino acids) OSM (natural protein, human, UniProt P13725 26-221, looked up)", "chain": "AAIGSCSKEYRVLLGQLQKQTDLMQDTSRLLDPYIRIQGLDVPKLREHCRERPGAFPSEETLRGLGRRGFLQTLNATLGCVLHRLADLEQRLPKAQDLERSGLNIEDLEKLQMARPNILGLRNNIYCMAQLLDNSDTAEPTKAGRGASQPPTPTPASDAFQRKLEGCRFLHGYHRFMHSVGRVFSKWGESPNRSRR"}}, "molecular_target": "fibronectin (UniProt P02751 32-2477)", "experiment": "SPR", "data": [{"binder": "B1", "values": [{"measurement": "Kd", "value": 2600, "unit": "nM"}]}]}
